Measurements taken from patent publication US20090202556A1 (Kyowa Kirin, published 2009).

T1: human CLDN4 (Claudin-4) expressed by human cancer cell lines (Capan-2, HPAF-II, MCF7, HT-29, SW480, 22Rv1, DU … (human, UniProt O14493 1-209))
T1 construct: Endogenous protein on cell lines; MCF7 is said to express both CLDN3 and CLDN4; also called CLDN4 expressed in breast cancer cells, colorectal cancer cells and prostate cancer cells
T1 sequence: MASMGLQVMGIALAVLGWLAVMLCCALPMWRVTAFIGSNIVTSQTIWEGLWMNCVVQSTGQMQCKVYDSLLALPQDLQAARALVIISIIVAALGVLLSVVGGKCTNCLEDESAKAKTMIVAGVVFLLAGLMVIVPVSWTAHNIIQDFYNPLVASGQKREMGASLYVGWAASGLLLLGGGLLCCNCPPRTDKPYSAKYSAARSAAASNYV

B1: anti-CLDN4 human chimeric antibody cKM3900 (antibody, V domains shown)
VH: EVQLQQSGPELVKPGASVKISCKASGYTFTDYYMNWVKQSHGKSLEWIGDVVPNNGVPTYNQKFKGKATLTVDKSSSTAYMELRSLTSEDSAVYYCARPHYYYAGRSGAMDYWGQGTSVTVSS
VL: QIVLTQSPAIMSASLGERVTMTCTASSTVSSTYLHWYQQKPGSSPKLWIYSTSNLASGVPARFSGSGSGTSYSLTISSMEAEDAATYYCHQYHRSPPTFGGGTKLEIK
notes: Human chimeric IgG: mouse V regions of KM3900 joined to the human CH and CL of vector pKANTEX93 (WO 97/10354); also called cKM3900-93 (expression vector)
B2: anti-CLDN4 human chimeric antibody cKM3907 (antibody, V domains shown)
VH: QVQLQQSGPELVKPGASVKISCKASGYAISTSWMNWVKQRPGKGLEWIGRINPGDGNTNYNGKFMAKATLTADKPSSTAYMQLSSLTSEDSAVYFCTRGDRWSGAMDYWGQGTSVTVSS
VL: GNVLTQSPAIMSASPGEKVTMTCRASSSVSSSYLHWYQQKSGASPKLWIYSTSNLASGVPVRFSGSGSGTSYSLTISSVEAEDAATYYCQQYSGFPLTFGAGTKLELK
notes: Human chimeric IgG: mouse V regions of KM3907 joined to the human CH and CL of vector pKANTEX93 (WO 97/10354); also called cKM3907-93 (expression vector)

Experiments:
[1] = target: T1, human CLDN4 (Claudin-4) expressed by …; test: FCM on live Capan-2 cells (express CLDN4), 5 µg/ml
Procedure: (§1) Pancreatic cancer cell line Capan-2 which expresses CLDN4 was used as the evaluation cell of cKM3900, and a breast cancer cell line MCF7 which expresses both of CLDN3 and CLDN4 was used as the evaluation cell of cKM3907. The cells were cultured for 3 to 4 days and peeled off using 0.02% EDTA solution (manufactured by Nacalai Tesque) to recover the resulting cells. The thus recovered cells were washed with PBS and, in order to avoid nonspecific adsorption of antibodies, blocked using BSA-PBS at ice temperature for 30 minutes. The cells were dispensed at 1 to 5×10⁵ cells/100 μl BSA-PBS into a 96-well U bottom plate and centrifuged (1,500 rpm, 5 minutes), the supernatant was removed and then 5 μg/ml of a negative control antibody cKM3034 (anti-FGF8 human chimeric antibody) [US 2004/0091480], an anti-CLDN4 monoclonal antibody KM3900 or KM3907 or an anti-CLDN4 human chimeric antibody cKM3900 or cKM3907 was dispensed as the primary antibody at 100 μl/well and allowed to react at ice temperature for 60 minutes. […] After washing again once with PBS and subsequently suspending in PBS, the fluorescent intensity was measured by FCM (manufactured by Beckman Coulter).

[2] = target: T1, human CLDN4 (Claudin-4) expressed by …; test: FCM on live MCF7 cells (express both CLDN3 and CLDN4), 5 µg/ml
Procedure: as §1

Binder	binding result [1]	binding result [2]
B1	binds	–
B2	–	binds
